The values below come from publication PMC8058328 (Developmental cell, 2021).

The target of the assay is T1, GST-SH3BP4-HIS8x (human, UniProt Q9P0V3 1-963).
T1 sequence (looked up): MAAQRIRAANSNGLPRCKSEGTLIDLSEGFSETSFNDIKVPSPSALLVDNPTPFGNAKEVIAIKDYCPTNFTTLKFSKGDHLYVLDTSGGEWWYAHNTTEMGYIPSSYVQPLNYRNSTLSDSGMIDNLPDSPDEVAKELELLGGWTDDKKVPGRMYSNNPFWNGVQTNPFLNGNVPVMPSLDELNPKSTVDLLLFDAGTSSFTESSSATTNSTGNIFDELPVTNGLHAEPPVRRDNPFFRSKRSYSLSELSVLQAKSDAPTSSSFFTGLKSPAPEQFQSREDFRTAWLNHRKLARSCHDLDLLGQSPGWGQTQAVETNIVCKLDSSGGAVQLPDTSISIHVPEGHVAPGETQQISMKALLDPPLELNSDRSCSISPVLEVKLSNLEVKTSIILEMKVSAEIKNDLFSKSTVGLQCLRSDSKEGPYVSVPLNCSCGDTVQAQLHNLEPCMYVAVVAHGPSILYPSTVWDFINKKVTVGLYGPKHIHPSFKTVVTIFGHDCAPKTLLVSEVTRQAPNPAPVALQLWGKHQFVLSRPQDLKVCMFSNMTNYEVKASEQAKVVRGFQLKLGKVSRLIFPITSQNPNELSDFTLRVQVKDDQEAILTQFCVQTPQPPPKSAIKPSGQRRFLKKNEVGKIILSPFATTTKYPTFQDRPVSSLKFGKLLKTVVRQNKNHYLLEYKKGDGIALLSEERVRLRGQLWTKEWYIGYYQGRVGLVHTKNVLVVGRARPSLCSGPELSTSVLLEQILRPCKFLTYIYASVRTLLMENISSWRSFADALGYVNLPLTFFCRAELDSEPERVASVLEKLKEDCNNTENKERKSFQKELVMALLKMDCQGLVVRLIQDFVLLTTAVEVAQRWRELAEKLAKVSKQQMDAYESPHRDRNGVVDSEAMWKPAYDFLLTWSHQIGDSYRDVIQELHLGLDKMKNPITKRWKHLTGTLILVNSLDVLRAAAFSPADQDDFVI
In words: pull-down.

B1: GIPC1-HIS8x (natural protein, human, UniProt O14908 1-333, looked up)
chain: MPLGLGRRKKAPPLVENEEAEPGRGGLGVGEPGPLGGGGSGGPQMGLPPPPPALRPRLVFHTQLAHGSPTGRIEGFTNVKELYGKIAEAFRLPTAEVMFCTLNTHKVDMDKLLGGQIGLEDFIFAHVKGQRKEVEVFKSEDALGLTITDNGAGYAFIKRIKEGSVIDHIHLISVGDMIEAINGQSLLGCRHYEVARLLKELPRGRTFTLKLTEPRKAFDMISQRSAGGRPGSGPQLGTGRGTLRLRSRGPATVEDLPSAFEEKAIEKVDDLLESYMGIRDTELAATMVELGKDKRNPDELAEALDERLGDFAFPDEFVFDVWGAIGDAKVGRY
On to B1, for which the binding result is given as “binds”.
